Values of other authors in PMC9101112.

Experiments:
Test in all cases: enzyme inhibition
Ile-Val-Tyr-Pro-Trp = molecular target: Ile-Val-Tyr-Pro-Trp
Trp-Val-Tyr-Pro-Trp = molecular target: Trp-Val-Tyr-Pro-Trp
tynorphin = molecular target: tynorphin
spinorphin (Bos taurus) = molecular target: spinorphin (Bos taurus)
valorphin (Bos taurus) = molecular target: valorphin (Bos taurus)

| Substance | Ki (Ile-Val-Tyr-Pro-Trp) [nM] | Ki (Trp-Val-Tyr-Pro-Trp) [nM] | Ki (tynorphin) [nM] | Ki (spinorphin (Bos taurus)) [nM] | Ki (valorphin (Bos taurus)) [nM] |
| --- | --- | --- | --- | --- | --- |
| DPP III (from UniProt O55096) | 100 | 126 | 2670 | – | – |
| DPP III (from UniProt Q9NY33) | – | – | – | 2420 | 49 |
